Data set [1] concerns the molecule itself. The data set can be described thus: native gel or EMSA; native-PAGE on ice (4% stacking, 17% separating gel, Tris-Gly pH 8.8); samples equilibrated overnight in 10 mM PB pH 7.2, 100 mM NaCl.
Data set [2] concerns the molecule itself. The data set can be described thus: SEC; freshly purified protein, 20 mM sodium phosphate, 100 mM NaCl, pH 8.0; superdex 200, 4°C.

B1: wild type TMV CP (tobacco mosaic virus coat protein) (natural protein)
chain: SYSITTPSQFVFLSSAWADPIELINLCTNALGNQFQTQQARTVVQRQFSEVWKPSPQVTVRFPDSDFKVYRYNAVLDPLVTALLGAFDTRNRIIEVENQANPTTAETLDATRRVDDATVAIRSAINNLIVELIRGTGSYNRSSFESSSGLVWTSGPAT
notes: also called WT TMV CP; wild TMV CP
Regarding B1, the binding result in data set [1] is given as “binds”.

B2: N-His-TMV CP^19 (tobacco mosaic virus coat protein, N-terminal six-His tag, C-terminal residues 155-158 truncated) (domain or fragment)
chain: SYSITTPSQFVFLSSAWADPIELINLCTNALGNQFQTQQARTVVQRQFSEVWKPSPQVTVRFPDSDFKVYRYNAVLDPLVTALLGAFDTRNRIIEVENQANPTTAETLDATRRVDDATVAIRSAINNLIVELIRGTGSYNRSSFESSSGLVWTS
notes: Tobacco mosaic virus (common strain) coat protein, residues 1-154; Gly155, Pro156, Ala157 and Thr158 deleted at the C-terminus; no tag cleavage is described; Oligomeric state depends on buffer: monomer and dimer, 20S, disks, four-layer aggregate, rods; also called genetically engineered TMV CP; truncated TMV CP; source: E. coli BL21 (DE3) RIL, purified (HisTrap, gel filtration on superdex 200); …
Broadly, the stoichiometry N is a count of units in the complex or per binding partner. As to B2, in data set [2], the “stoichiometry N” value was 2.

(Values after publication PMC3817195, “Crystal Structure of a Four-Layer Aggregate of Engineered TMV CP Implies the Importance of Terminal Residues for Oligomer Assembly” (PLoS ONE, 2013).)
